According to paper PMC9982069 (PNAS Nexus, 2023):
Where “and” joins values, the source holds several entries; their conditions need not be identical. Equal values may be shown once.

What was measured:
cross-linking = target: the molecule itself; assay: cross-linking
[1] = target: batCOV5-N3 [change] (residues 391-427 of batCOV5 N protein) fused to C-terminal GFP-His10 (Pipistrellus bat coronavirus HKU5); assay: MST; details: both partners purified
[2] = target: batCOV5-N3 [change] (residues 391-427 of batCOV5 N protein) fused to C-terminal GFP-His10 (Pipistrellus bat coronavirus HKU5); assay: MST; details: both partners purified; remark: listed apart in the source
[3] = target: batCOV5-N3 [change] (residues 391-427 of batCOV5 N protein) fused to C-terminal GFP-His10 (Pipistrellus bat coronavirus HKU5); assay: MST; details: both partners purified; remark: listed apart in the source
[4] = target: batCOV5-N3 [change] (residues 391-427 of batCOV5 N protein) fused to C-terminal GFP-His10 (Pipistrellus bat coronavirus HKU5); assay: MST; details: both partners purified; remark: listed apart in the source
[5] = target: batCOV5-N3 (residues 391-427) with C-terminal GFP-His10 (MST) (Pipistrellus bat coronavirus HKU5, UniProt A3EXD7 391-427); assay: MST; details: both partners purified

B1: M protein of Pipistrellus bat coronavirus HKU5 (batCOV5-M), wild type (natural protein)
chain: MASSNVTLSNDEVLRLVKDWNFTWSVVFLLITIVLQYGYPSRSMFVYVIKMFVLWLLWPASMALSIFCAVYPIDLASQIISGILAATSCAMWISYFVQSIRLFMRTGSWWSFNPESNCLLNVPIGGTTVVRPLVEDSTSVTAVVTDGYLKMAGMHFGACDFQRLPSEVTVAKPNVLIALKMIKRQAYGTNSGVAIYHRYKAGNYRRPPIIQDQELALLRA
stoichiometry N (cross-linking): 4 and 6
Kd [1]: 3.07 µM
Kd [2]: 3.5 µM
Kd [3]: 1.9 µM
Kd [4]: 4.83 µM

B2: batCOV5-M, M protein of Pipistrellus bat coronavirus HKU5, affinity- and SEC-purified (cross-linking, MST) (natural protein)
chain: B1 chain
Kd [5]: 0.77 µM
